Reference: patent US20210087291A1 (Hoffmann-La Roche, published 2021)
Where a chain is given by its changes, count along the chain named.

Assays:
human TIM-3 on cells [1] = target: T1, human TIM-3 on cells (human, UniProt Q8TDQ0 22-301); experiment: flow cytometry, human CD14+ monocytes donor1
T1 construct: also called CHO-Tim3; rec CHOK1 cells expressing huTIM-3
Description: (§1) CD14+ Monocytes were isolated from anticoagulated peripheral blood of healthy donors by density gradient centrifugation using Ficoll-Paque (GE Healthcare) (see General Protocols in the User Manuals or visit www.miltenyibiotec.com/protocols) and subsequent positive selection via CD14 MicroBeads. First the CD14+ cells are magnetically labeled with CD14 MicroBeads. Then the cell suspension is loaded onto a MACS® Column which is placed in the magnetic field of a MACS Separator. The magnetically labeled CD14+ cells are retained in the column. The unlabeled cells run through, this cell fraction is depleted of CD14+ cells. After removal of the column from the magnetic field, the magnetically retained CD14+ cells can be eluted as the positively selected cell fraction. After centrifugation at 200×g for 10 min at room temperature the monocytes were harvested and used directly in binding assay or resuspended in freezing medium (10% DMSO, 90% FCS) at 1.0E+07 cells/ml and stored in liquid nitrogen.
(§2) 1×10⁵ CD14+ isolated human monocytes (50 μl/well) were put into 98 well-v bottom MTP in fresh culture medium and incubated with Redimune® NF Liquid for 15 min at RT to block unspecific binding. […] After washing and centrifugation MFI signals of stained cells were analyzed by BD Biosciences FACSCanto flow cytometer.

human TIM-3 on cells [2] = target: T1, human TIM-3 on cells; experiment: flow cytometry, human CD14+ monocytes donor3
Description: as §1, §2

[3] = target: T2, cynomolgus TIM-3 on isolated cyno CD14+ monocytes (cynomolgus); experiment: flow cytometry, cyno CD14+ monocytes cyno3
T2 construct: whole, on cells
Description: (§3) CD14+ Monocytes were isolated from cynomolgus monkey anticoagulated peripheral blood (Covance) by density gradient centrifugation using Ficoll-Paque (GE Healthcare) (see General Protocols in the User Manuals or visit www.miltenyibiotec.com/protocols) and subsequent positive selection via NHP CD14 MicroBeads. First the CD14+ cells are magnetically labeled with CD14 MicroBeads. Then the cell suspension is loaded onto a MACS® Column which is placed in the magnetic field of a MACS Separator. The magnetically labeled CD14+ cells are retained in the column. The unlabeled cells run through, this cell fraction is depleted of CD14+ cells. After removal of the column from the magnetic field, the magnetically retained CD14+ cells can be eluted as the positively selected cell fraction. After centrifugation at 200×g for 10 min at room temperature the monocytes were harvested and used directly in binding assay or resuspended in freezing medium (10% DMSO, 90% FCS) at 1.0E+07 cells/ml and stored in liquid nitrogen.
(§4) 1×10⁵ CD14+ isolated cyno monocytes (50 μl/well) were put into 98 well-v bottom MTP in fresh culture medium and incubated with Redimune® NF Liquid for 15 min at RT to block unspecific binding. Than 50 μl/well of Alexa488 labeled anti-TIM3 (10 μg/ml in cell culture medium) were added and incubated for 1 h at 4° C. After washing and centrifugation MFI signals of stained cells were analyzed by BD Biosciences FACSCanto flow cytometer.

[4] = target: T2, cynomolgus TIM-3 on isolated cyno CD14+ …; experiment: flow cytometry, cyno CD14+ monocytes cyno2
Description: as §3, §4

human TIM-3 on cells [5] = target: T1, human TIM-3 on cells; experiment: flow cytometry, human CD14+ monocytes donor2
Description: as §1, §2

human TIM-3 on cells [6] = target: T1, human TIM-3 on cells; experiment: cell-based or functional assay
[7] = target: T2, cynomolgus TIM-3 on isolated cyno CD14+ …; experiment: flow cytometry, cyno CD14+ monocytes cyno1
Description: as §3, §4

[8] = target: T3, murine FolR1 ECD-AcTev-Fcknob-Avitag + Fc hole, biotinylated monomeric Fc fusion (murine, UniProt P0DOX5 223-449 = IgG part); experiment: SPR, IgG single injection
T3 construct: also called muFolR1; murine FolR1-Fc

[9] = target: T4, human FolR2 ECD-AcTev-Fcknob-Avi tag + Fc hole, biotinylated monomeric Fc fusion (human, UniProt P0DOX5 223-449 = IgG part); experiment: SPR ProteOn, Fab analyte;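 note: recombinant antigens immobilized, purified Fab two-fold dilutions injected in parallel channels, 200 s association and 600 s dissociation, buffer-only channel as in-line reference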
T4 construct: also called huFolR2; FolR2-Fc
Protocol: (§5) Immobilization of antigens (ligand): Recombinant antigens were diluted with PBST (10 mM phosphate, 150 mM sodium chloride pH 7.4, 0.005% Tween 20) to 10 μg/ml, then injected at 30 μl/minute in vertical orientation.
(§6) Injection of analytes: For ‘one-shot kinetics’ measurements, injection direction was changed to horizontal orientation, two-fold dilution series of purified Fab (varying concentration ranges) were injected simultaneously along separate channels 1-5, with association times of 200 s, and dissociation times of 600 s. Buffer (PBST) was injected along the sixth channel to provide an “in-line” blank for referencing. Association rate constants (kₒₙ) and dissociation rate constants (koff) were calculated using a simple one-to-one Langmuir binding model in ProteOn Manager v3.1 software by simultaneously fitting the association and dissociation sensorgrams. The equilibrium dissociation constant (KD) was calculated as the ratio koff/kₒₙ.

[10] = target: T5, cynomolgus FolR1 ECD-AcTev-Fcknob-Avi tag + Fc hole, biotinylated monomeric Fc fusion (cynomolgus, UniProt P0DOX5 223-449 = IgG part); experiment: SPR ProteOn, Fab analyte;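 note: recombinant antigens immobilized, purified Fab two-fold dilutions injected in parallel channels, 200 s association and 600 s dissociation, buffer-only channel as in-line reference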
T5 construct: also called cyFolR1; cyno FolR1-Fc
Protocol: as §5, §6

[11] = target: T6, human FolR3 ECD-AcTev-Fcknob-Avi tag + Fc hole, biotinylated monomeric Fc fusion (human, UniProt P0DOX5 223-449 = IgG part); experiment: SPR ProteOn, Fab analyte;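 note: recombinant antigens immobilized, purified Fab two-fold dilutions injected in parallel channels, 200 s association and 600 s dissociation, buffer-only channel as in-line reference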
T6 construct: also called huFolR3; FolR3-Fc
Protocol: as §5, §6

[12] = target: T7, human FolR1 ECD-AcTev-Fcknob-Avi tag + Fc hole, biotinylated monomeric Fc fusion (human, UniProt P0DOX5 223-449 = IgG part); experiment: SPR ProteOn, Fab analyte;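 note: recombinant antigens immobilized, purified Fab two-fold dilutions injected in parallel channels, 200 s association and 600 s dissociation, buffer-only channel as in-line reference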
T7 construct: also called huFolR1; huFolR1-Fc
Protocol: as §5, §6

[13] = target: T4, human FolR2 ECD-AcTev-Fcknob-Avi tag + …; experiment: SPR, IgG single injection
[14] = target: human FolR2 on transiently transfected HEK cells (human, UniProt P14207 17-230); experiment: flow cytometry on HEK cells transiently transfected with human FolR2, anti-human secondary antibody; concentration not given
Chain of human FolR2 on transiently transfected HEK cells (P14207 17-230 limits assumed): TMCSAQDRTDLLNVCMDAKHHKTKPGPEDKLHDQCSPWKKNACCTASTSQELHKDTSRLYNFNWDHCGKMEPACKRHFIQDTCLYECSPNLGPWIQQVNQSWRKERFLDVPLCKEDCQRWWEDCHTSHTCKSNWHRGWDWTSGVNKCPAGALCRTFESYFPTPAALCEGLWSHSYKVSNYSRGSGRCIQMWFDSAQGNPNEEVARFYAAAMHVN

[15] = target: T6, human FolR3 ECD-AcTev-Fcknob-Avi tag + …; experiment: SPR, IgG single injection
human TIM-3 on cells [16] = target: T1, human TIM-3 on cells; experiment: cell-based or functional assay; remark: listed apart in the source
cynomolgus Tim3 (ELISA) [17] = target: T8, cynomolgus Tim3 (ELISA) (cynomolgus, UniProt A0A2K5U3G7 22-193); experiment: ELISA, cyno Tim3; EC50 relative to the sample's max value
T8 construct: also called Biochem Cyno; cyno TIM3
T8 sequence: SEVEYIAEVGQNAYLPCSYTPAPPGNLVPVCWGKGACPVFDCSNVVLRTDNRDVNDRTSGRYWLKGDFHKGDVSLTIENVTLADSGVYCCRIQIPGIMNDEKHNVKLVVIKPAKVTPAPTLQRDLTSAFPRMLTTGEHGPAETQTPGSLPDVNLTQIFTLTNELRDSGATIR

Tim3-ECD-His-Biotin [18] = target: T9, Tim3-ECD-His-Biotin (human, UniProt Q8TDQ0 22-202); experiment: ELISA, human Tim3
T9 construct: also called human Tim3 (ELISA); Biochem Human

cynomolgus Tim3 (ELISA) [19] = target: T8, cynomolgus Tim3 (ELISA); experiment: ELISA, cyno Tim3
human TIM-3 on cells [20] = target: T1, human TIM-3 on cells; experiment: cell ELISA, CHO-Tim3
human TIM-3 on cells [21] = target: T1, human TIM-3 on cells; experiment: cell ELISA, CHO-Tim3; EC50 relative to the sample's max value
Tim3-ECD-His-Biotin [22] = target: T9, Tim3-ECD-His-Biotin; experiment: ELISA, human Tim3; EC50 relative to the sample's max value

B1: Tim3_0038 (antibody, V domains shown)
VH: EVQLQQSGAEPLKPGASVKLTCTTSGFNIKDYYIHWVKQRSDQGLEWIGRIDPEDGELIYAPKFQDKATITVDTSSNIAYLQLNSLTSEDTAVYYCSRDHGYVGWFAYWGQGTLVTVSA
VL: NVVMTQSPKSMIMSVGQRVTLNCKASENVDTYVSWYQQKPEQSPKLLIYGASNRYTGVPDRFTGSRSATDFTLTISSVQAEDLAVYYCGQSYSYPWTFGGGTKLEFR
- specific binding MFI (human TIM-3 on cells [1]): 1640 MFI
- specific binding MFI (human TIM-3 on cells [2]): 1400 MFI
- MFI [3]: 120 MFI
- MFI [4]: 107 MFI
- specific binding MFI (human TIM-3 on cells [5]): 1370 MFI
- IFN-gamma release in MLR at 1 µg/ml, % of IL-2 control (human TIM-3 on cells [6]): 1%
- IFN-gamma release in MLR at 10 µg/ml, % of IL-2 control (human TIM-3 on cells [6]): 38%
- IFN-gamma release in MLR at 40 µg/ml, % of IL-2 control (human TIM-3 on cells [6]): 51%
- MFI [7]: 97 MFI

B2: 6B6 IgG (antibody, V domains shown)
VH: QVQLVQSGAEVKKPGASVKVSCKASGYTFTSYYMHWVRQAPGQGLEWMGIINPSGGSTSYAQKFQGRVTMTRDTSTSTVYMELSSLRSEDTAVYYCARSYVDMDYWGQGTLVTVSS
VL: EIVLTQSPGTLSLSPGERATLSCRASQSVSSSYLAWYQQKPGQAPRLLIYGASSRATGIPDRFSGSGSGTDFTLTISRLEPEDFAVYYCQQDIWSPTFGQGTKVEIK
notes: human IgG1
- binding result [8]: no binding (tested: 500 nM)

B3: 15A1 Fab (Fab, V domains shown)
VH: QVQLVQSGAEVKKPGASVKVSCKASGYTFTSYYMHWVRQAPGQGLEWMGIINPSGGSTSYAQKFQGRVTMTRDTSTSTVYMELSSLRSEDTAVYYCARNYYIGVVTFDYWGQGTLVTVSS
VL: QAVVTQEPSLTVSPGGTVTLTCGSSTGAVTTSNYANWVQEKPGQAFRGLIGGTNKRAPGTPARFSGSLLGGKAALTLSGAQPEDEAEYYCALWYSNLWVFGGGTKLTVL
- binding result [9]: no binding
- Kd [10]: 17.3 nM
- binding result [11]: no binding
- Kd [12]: 30.9 nM

B4: 16A3 Fab (Fab, V domains shown)
VH: B3 VH with I102A, V105T, T106P
VL: B3 VL
- binding result [9]: no binding
- Kd [10]: 18 nM
- binding result [11]: no binding
- Kd [12]: 21.7 nM

B5: 18D3 Fab (Fab, V domains shown)
VH: QVQLVQSGAEVKKPGASVKVSCKASGYTFTSYYMHWVRQAPGQGLEWMGIINPSGGSTSYAQKFQGRVTMTRDTSTSTVYMELSSLRSEDTAVYYCARNYYTGGSSAFDYWGQGTLVTVS
VL: B3 VL
- binding result [9]: no binding
- Kd [10]: 40.2 nM
- binding result [11]: no binding
- Kd [12]: 93.6 nM

B6: 21A5 IgG (antibody, V domains shown)
VH: not shown
VL: B3 VL
notes: human IgG1
- binding result [13]: no binding (tested: 500 nM)
- binding result [8]: no binding (tested: 500 nM)
- binding result [14]: no binding

B7: 19H3 Fab (Fab, V domains shown)
VH: B3 VH with N99T, Y100G, Y101W, I102S, G103R, V104W, V105G, T106Y, F107M
VL: B3 VL
- binding result [9]: no binding
- binding result [10]: no binding
- binding result [11]: no binding
- binding result [12]: no binding

B8: 21D1 Fab (Fab, V domains shown)
VH: B3 VH with I102V, V105S, T106P
VL: B3 VL
- binding result [9]: no binding
- Kd [10]: 32.1 nM
- binding result [11]: no binding
- Kd [12]: 62.6 nM

B9: 16D5 IgG (antibody, V domains shown)
VH: not shown
VL: B3 VL
notes: human IgG1
- binding result [13]: no binding (tested: 500 nM)
- binding result [15]: no binding (tested: 500 nM)
- binding result [8]: no binding (tested: 500 nM)
- binding result [14]: no binding

B10: 15B6 IgG (antibody, V domains shown)
VH: B3 VH with V104I, T106P
VL: B3 VL
notes: human IgG1
- binding result [13]: no binding (tested: 500 nM)
- binding result [15]: no binding (tested: 500 nM)
- binding result [8]: no binding (tested: 500 nM)

B11: 16F12 IgG (antibody, V domains shown)
VH: B3 VH with Y100F, Y101T, I102V, G103L, V104R, T106P
VL: B3 VL
notes: human IgG1
- binding result [13]: no binding (tested: 500 nM)
- binding result [15]: no binding (tested: 500 nM)
- binding result [8]: no binding (tested: 500 nM)

B12: 21G8 IgG (antibody, V domains shown)
VH: not shown
VL: B3 VL
notes: human IgG1
- binding result [8]: no binding (tested: 500 nM)
- binding result [14]: binds

B13: 20G6 Fab (Fab, V domains shown)
VH: B3 VH with N99G, Y100E, Y101W, G103R, V104Y, V105Y, T106H
VL: B3 VL
- binding result [9]: no binding
- binding result [10]: no binding
- binding result [11]: no binding
- binding result [12]: no binding

B14: Tim3_0028 (antibody, V domains shown)
VH: EVQLQQSVAELVRPGASVKLSCTASGFNIKTTYMHWVKQRPEQGLEWIGRIDPADDNTKYAPKFQGKATITADTSSNTAYLQLSSLTSEDAAIYYCVRDFGYVAWFAYWGQGTLVTFSA
VL: NIVMTPTPKFLPVSSGDRVTMTCRASQSVDNYVAWYQQKPGQSPKLLIYYASNRYIGVPDRFTGSGSGTDFTFTISSVQVEDLAVYFCQQHYSSPYTFGSGTKLEIK
- specific binding MFI (human TIM-3 on cells [1]): 1350 MFI
- specific binding MFI (human TIM-3 on cells [2]): 1610 MFI
- MFI [3]: 4090 MFI
- internalization at 30 Min, RPMI-8226 (human TIM-3 on cells [16]): 50%
- internalization at 60 Min, RPMI-8226 (human TIM-3 on cells [16]): 59%
- internalization at 120 Min, RPMI-8226 (human TIM-3 on cells [16]): 67%
- internalization at 240 Min, RPMI-8226 (human TIM-3 on cells [16]): 68%
- internalization at 26 h, RPMI-8226 (human TIM-3 on cells [16]): 83%
- MFI [4]: 3000 MFI
- specific binding MFI (human TIM-3 on cells [5]): 950 MFI
- IFN-gamma release in MLR at 1 µg/ml, % of IL-2 control (human TIM-3 on cells [6]): 12%
- MFI [7]: 3940 MFI

B15: aTim3 0018MutNQ (antibody, V domains shown)
VH: QVTLKESGPGILQPSQTLSLTCSFSGFSLSTSGMSVGWIRQPSGKGLEWLAHIWLNDDVFFNPALKRRLTISKDTSNNQVFLQIASVVTADTATYYCVRANGYLYALDYWGQGISVTVSS
VL: QIVLTQSPAIMSASPGQKVTITCSASSSVQYTQWYQQKLGSSPKLWIYDAFKLAPGVPARFSGSGTGTSYSLTISSMEAEDAASYFCHQWSSYPWTFGGGTKLEIK
notes: also called aT3m3 0018MutNQ
- EC50 (cynomolgus Tim3 (ELISA) [17]): 0.0132 µg/mL
- inflexion point (Tim3-ECD-His-Biotin [18]): 10.8 ng/mL
- inflexion point (cynomolgus Tim3 (ELISA) [19]): 10.8 ng/mL
- inflexion point (human TIM-3 on cells [20]): 12.8 ng/mL
- EC50 (human TIM-3 on cells [21]): 0.0134 µg/mL
- EC50 (Tim3-ECD-His-Biotin [22]): 0.012 µg/mL

B16: aTim3 0016 MutNQ (antibody, V domains shown)
VH: B15 VH with S19R, R67S, I114T
VL: B15 VL
- EC50 (cynomolgus Tim3 (ELISA) [17]): 0.0083 µg/mL
- inflexion point (Tim3-ECD-His-Biotin [18]): 5.7 ng/mL
- inflexion point (cynomolgus Tim3 (ELISA) [19]): 5.7 ng/mL
- inflexion point (human TIM-3 on cells [20]): 5.4 ng/mL
- EC50 (human TIM-3 on cells [21]): 0.0068 µg/mL
- EC50 (Tim3-ECD-His-Biotin [22]): 0.0076 µg/mL
